T1: Boi1 SH3 (BOI1_YEAST), P38041
T1 chain: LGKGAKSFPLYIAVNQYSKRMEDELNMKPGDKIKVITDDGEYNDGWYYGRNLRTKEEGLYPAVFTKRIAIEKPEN

T2: Boi2 SH3 (BOI2_YEAST), P39969
T2 chain: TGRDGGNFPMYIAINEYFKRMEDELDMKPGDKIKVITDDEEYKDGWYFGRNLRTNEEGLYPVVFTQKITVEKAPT

T3: Myo5 SH3 (MYO5_YEAST), Q04439
T3 chain: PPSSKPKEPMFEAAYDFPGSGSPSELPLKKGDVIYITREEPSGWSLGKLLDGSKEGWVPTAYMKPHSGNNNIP

T4: Rvs167 SH3 (RV167_YEAST), P39743
T4 chain: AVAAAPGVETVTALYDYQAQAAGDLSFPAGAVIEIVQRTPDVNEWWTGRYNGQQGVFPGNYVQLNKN

T5: Yfr024 SH3 (LSB3_YEAST), P43603
T5 chain: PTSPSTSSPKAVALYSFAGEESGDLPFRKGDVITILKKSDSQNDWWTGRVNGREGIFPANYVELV

T6: Yhr016c SH3 (YSC84_YEAST), P32793
T6 chain: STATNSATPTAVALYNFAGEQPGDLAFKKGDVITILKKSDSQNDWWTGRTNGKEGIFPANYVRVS

B1: YKL189W 13-26 (peptide)
chain: AFWWKKNPKTPSDY
B2: YLR216C 44-57 (peptide)
chain: AGMAKTKPDVPLSY
B3: YOR264W 26-39 (peptide)
chain: ADDLKYIPPIPQDF
B4: YJR158W 273-286 (peptide)
chain: AKIDKVSPEDPWVL
B5: YJR016C 376-389 (peptide)
chain: AERAKKAPSLPEGQ
B6: YLR371W 185-198 (peptide)
chain: AFVPKRKPSLPQLA
B7: YGL056C 180-193 (peptide)
chain: AEIVKLTPKNPFYK
B8: YLR291C 296-309 (peptide)
chain: AGLYKLSPLYPFDV

Target: T1, Boi1 SH3 (BOI1_YEAST), P38041
Test: SPOT array

| Binder | normalised SPOT signal, Boehringer light units (BLU); mean over the file's lines of this peptide |
| --- | --- |
| B1 | 110 |
| B2 | 20.7 |
| B3 | 133 |
| B4 | 54.6 |
| B5 | 925 |
| B6 | 2730 |
| B7 | 155 |
| B8 | 106 |

Target: T2, Boi2 SH3 (BOI2_YEAST), P39969
Test: SPOT array

| Binder | normalised SPOT signal, Boehringer light units (BLU); mean over the file's lines of this peptide |
| --- | --- |
| B1 | 64.4 |
| B2 | 0 |
| B3 | 15.8 |
| B4 | 15.6 |
| B5 | 42.3 |
| B6 | 16.6 |
| B7 | 30.2 |
| B8 | 0 |

Target: T3, Myo5 SH3 (MYO5_YEAST), Q04439
Test: SPOT array

| Binder | normalised SPOT signal, Boehringer light units (BLU); mean over the file's lines of this peptide |
| --- | --- |
| B1 | 65 |
| B2 | 158 |
| B3 | 86.7 |
| B4 | 248 |
| B5 | 389 |
| B6 | 1740 |
| B7 | 102 |
| B8 | 133 |

Target: T4, Rvs167 SH3 (RV167_YEAST), P39743
Test: SPOT array

| Binder | normalised SPOT signal, Boehringer light units (BLU); mean over the file's lines of this peptide |
| --- | --- |
| B1 | 72.6 |
| B2 | 61.7 |
| B3 | 69.2 |
| B4 | 16 |
| B5 | 4 |
| B6 | 294 |
| B7 | 99.2 |
| B8 | 17.9 |

Each binder was assayed against Sho1 SH3 (SHO1_YEAST), P40073 (assay: SPOT array).
Sho1 SH3 (SHO1_YEAST), P40073, sequence (P40073 295-366): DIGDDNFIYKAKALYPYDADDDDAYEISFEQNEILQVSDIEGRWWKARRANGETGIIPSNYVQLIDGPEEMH

| Binder | normalised SPOT signal, Boehringer light units (BLU); mean over the file's lines of this peptide |
| --- | --- |
| B1 | 900 |
| B2 | 52.2 |
| B3 | 59.5 |
| B4 | 25.7 |
| B5 | 173 |
| B6 | 78.9 |
| B7 | 39.3 |
| B8 | 26.3 |

Target: T5, Yfr024 SH3 (LSB3_YEAST), P43603
Test: SPOT array

| Binder | normalised SPOT signal, Boehringer light units (BLU); mean over the file's lines of this peptide |
| --- | --- |
| B1 | 303 |
| B2 | 87.4 |
| B3 | 6 |
| B4 | 33.6 |
| B5 | 44.4 |
| B6 | 718 |
| B7 | 2 |
| B8 | 0 |

Target: T6, Yhr016c SH3 (YSC84_YEAST), P32793
Test: SPOT array

| Binder | normalised SPOT signal, Boehringer light units (BLU); mean over the file's lines of this peptide |
| --- | --- |
| B1 | 112 |
| B2 | 27.3 |
| B3 | 16.1 |
| B4 | 13.1 |
| B5 | 0 |
| B6 | 47.2 |
| B7 | 8.4 |
| B8 | 17.7 |

Source: PMC314469, “Protein Interaction Networks by Proteome Peptide Scanning” (PLoS Biology, 2004)
